Measurements published in PMC10869273 (Nature Biotechnology, 2023).
Changes are numbered by the printed parent chain. Names and notes keep the numbering of the source.

What was measured:
[1] = target: SARS-CoV-2 Beta-variant Spike with six stabilizing proline substitutions (S-6P) (SARS-CoV-2 Beta variant (B.1.351), strain)
[2] = target: SARS-CoV-2 Omicron BA.1 receptor-binding domain (RBD) (SARS-CoV-2 Omicron BA.1, strain, biotin on the AviTag (expressed in the presence of BirA)); experiment: BLI; conditions: both partners purified

B1: REGN10987 VH R16G-V108D (antibody, V domains shown)
VH: QVQLVESGGGVVQPGGSLRLSCAASGFTFSNYAMYWVRQAPGKGLEWVAVISYDGSNKYYADSVKGRFTISRDNSKNTLYLQMNSLRTEDTAVYYCASGSDYGDYLLDYWGQGTLVTVSS
VL: QSALTQPASVSGSPGQSITISCTGTSSDVGGYNYVSWYQQHPGKAPKLMIYDVSKRPSGVSNRFSGSKSGNTASLTISGLQSEDEADYYCNSLTSISTWVFGGGTKLTVL
- binding result [1]: binds

B2: another design of REGN10987 (5.1-fold improvement for the Omicron BA.1 RBD), Fab (Fab, V domains shown)
VH: B1 VH with D108V
VL: B1 VL with N91C
- fold improvement in Fab Kd over wild-type [2]: 5.1 fold

B3: best design of C143, IgG (antibody, V domains shown)
VH: EVQLVESGGGLVQPGGSLRLSCAASGFSVSTKYMTWVRQAPGKGLEWVSVLYSGGSDYYADSVKGRFTISRDNSKNALYLQMNSLRVEDTGVYYCARDSSEVRDHPGHPGRSVGAFDIWGQGTMVTVSS
VL: QSALTQPASVSGSPGQSITISCTGTSNDVGSYNLVSWYQQYPGKAPKLLIFEVTKRSSGISNRFSGSKSGNTASLTISGLQGEDEADYYCCSYAGASTFVFGGGTKLTVL
- fold improvement in apparent Kd over wild-type [2]: 3.8 fold
